Data set [1] concerns the target T1, EhME (Entamoeba histolytica malic enzyme; rEhME) (Entamoeba histolytica, UniProt Q9NH04).
T1 construct: gene CL6EHI_044970; full-length ORF in pQE30, N-terminal His6 tag (cleavage not mentioned), expressed in E. coli M15; Ni-NTA and Superdex 200; apparent 53 kDa; entangled homodimer with composite active site
T1 sequence (Q9NH04 1-487): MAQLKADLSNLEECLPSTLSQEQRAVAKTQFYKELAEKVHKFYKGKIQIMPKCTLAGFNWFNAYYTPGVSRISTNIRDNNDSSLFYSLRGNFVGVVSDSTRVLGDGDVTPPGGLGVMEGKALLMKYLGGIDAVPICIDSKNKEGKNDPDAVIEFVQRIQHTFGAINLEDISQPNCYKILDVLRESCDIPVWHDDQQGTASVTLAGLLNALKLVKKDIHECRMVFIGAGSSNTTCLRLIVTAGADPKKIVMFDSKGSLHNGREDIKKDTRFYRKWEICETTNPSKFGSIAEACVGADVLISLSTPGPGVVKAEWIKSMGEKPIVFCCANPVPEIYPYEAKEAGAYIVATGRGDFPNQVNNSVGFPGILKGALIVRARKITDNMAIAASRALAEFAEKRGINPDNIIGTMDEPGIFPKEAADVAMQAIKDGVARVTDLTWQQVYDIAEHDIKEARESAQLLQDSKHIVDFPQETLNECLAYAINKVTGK
Kind of data set: NADPH formation at […] nm, inhibition kinetics. In kind it is biochemical.

Data set [2] concerns the molecule itself. Kind of data set: SEC; gel filtration chromatography of purified EhME; conditions of the analysis not told apart from the purification step (Superdex 200, 10 mM Tris, 150 mM NaCl, 10 mM DTT, pH 8.0).
Substrate in data set [3]: O=C(O)C[C@H](O)C(=O)O
As to the kind of experiment: purified protein. Format: biochemical, Entamoeba histolytica. The note with it: NADP+ at saturation, L-malate varied 5-15 mM, 5 mM MnCl2, 50 mM Tris-Cl pH 7.4, 30 °C, apparent Km.

Substrate in data set [4]: NC(=O)c1ccc[n+]([C@@H]2O[C@H](COP(=O)(O)OP(=O)(O)OC[C@H]3O[C@@H](n4cnc5c(N)ncnc54)[C@H](OP(=O)(O)O)[C@@H]3O)[C@@H](O)[C@H]2O)c1
As to the kind of experiment: purified protein. In kind it is biochemical, Entamoeba histolytica. As to conditions: L-malate at saturation, NADP+ varied 0.1-0.5 mM, 5 mM MnCl2, 50 mM Tris-Cl pH 7.4, 30 °C, apparent Km, varied: cofactor.

Regarding `Nc1ncnc2c1ncn2[C@@H]1O[C@H](COP(=O)(O)OP(=O)(O)OP(=O)(O)O)[C@@H](O)[C@H]1O` [ATP], the Ki (in general, a dissociation constant, usually derived from enzyme kinetics or from competition with a known ligand) in data set [1] turned out to be 650 µM.

B1: Entamoeba histolytica malic enzyme (enzyme, UniProt Q9NH04 1-487, looked up)
chain: MAQLKADLSNLEECLPSTLSQEQRAVAKTQFYKELAEKVHKFYKGKIQIMPKCTLAGFNWFNAYYTPGVSRISTNIRDNNDSSLFYSLRGNFVGVVSDSTRVLGDGDVTPPGGLGVMEGKALLMKYLGGIDAVPICIDSKNKEGKNDPDAVIEFVQRIQHTFGAINLEDISQPNCYKILDVLRESCDIPVWHDDQQGTASVTLAGLLNALKLVKKDIHECRMVFIGAGSSNTTCLRLIVTAGADPKKIVMFDSKGSLHNGREDIKKDTRFYRKWEICETTNPSKFGSIAEACVGADVLISLSTPGPGVVKAEWIKSMGEKPIVFCCANPVPEIYPYEAKEAGAYIVATGRGDFPNQVNNSVGFPGILKGALIVRARKITDNMAIAASRALAEFAEKRGINPDNIIGTMDEPGIFPKEAADVAMQAIKDGVARVTDLTWQQVYDIAEHDIKEARESAQLLQDSKHIVDFPQETLNECLAYAINKVTGK
notes: Entamoeba histolytica malic enzyme, gene PCR-amplified from genomic DNA with primers from the ATG start codon to the stop codon; cloned into pQE30; Homodimer with two interlocked (knotted) protomers; also called EhME; rEhME; source: E. coli M15 (pQE30), purified (Ni-NTA, Superdex 200 gel exclusion chromatography)
For B1, the stoichiometry N – broadly, a count of units in the complex or per binding partner – in data set [2] was determined as 2. The Km – broadly, the substrate concentration at which the rate is half of its maximum – in “purified protein [3]” was 570 ± 80 µM; in “purified protein [4]”, 46.67 ± 6.0 µM. For the same molecule, the kcat (as a rule, the maximal rate divided by the concentration of active sites) in the data set “purified protein [3]” is 41.7 s⁻¹; in the data set “purified protein [4]”, 14.57 s⁻¹.

Values taken from paper PMC11944484, “Metronidazole Activation by a Deeply Entangled Dimeric Malic Enzyme in Entamoeba histolytica” (Pathogens, 2025).
